Data reported in publication PMC4066849 (Structure (London, England : 1993), 2014).

B1: MiD51Δ1–133 (domain or fragment, mouse, UniProt Q8BGV8 134-463, looked up)
chain: SLQEKLLSYYRNRAAIPAGEQARAKQAAVDICAELRSFLRAKLPDMPLRDMYLSGSLYDDLQVVTADHIQLIVPLVLEQNLWSCIPGEDTIMNVPGFFLVRRENPEYFPRGSSYWDRCVVGGYLSPKTVADTFEKVVAGSINWPAIGSLLDYVIRPAPPPEALTLEVQYEKDKHLVIDFLPSVTLGDTVLVARPHRLAQYDNLWRLSLRPAETARLRALDQADSGCRSLCLKILKAICKSTPALGHLTASQLTNVILHLAQEEADWSPDMLADRFLQALRGLISYLEAGVLPSALNPKVNLFAELTPQEIDELGYTLYCSLSEPEVLLQT
B2: MiD51 H201A mutant (MiD51Δ1–133 H201A) (domain or fragment, mouse, UniProt Q8BGV8 134-463, looked up)
chain: SLQEKLLSYYRNRAAIPAGEQARAKQAAVDICAELRSFLRAKLPDMPLRDMYLSGSLYDDLQVVTADAIQLIVPLVLEQNLWSCIPGEDTIMNVPGFFLVRRENPEYFPRGSSYWDRCVVGGYLSPKTVADTFEKVVAGSINWPAIGSLLDYVIRPAPPPEALTLEVQYEKDKHLVIDFLPSVTLGDTVLVARPHRLAQYDNLWRLSLRPAETARLRALDQADSGCRSLCLKILKAICKSTPALGHLTASQLTNVILHLAQEEADWSPDMLADRFLQALRGLISYLEAGVLPSALNPKVNLFAELTPQEIDELGYTLYCSLSEPEVLLQT

Biological target: the molecule itself
Test: crystal structure

Row | Protein | stoichiometry N
1 | B1 | 2
2 | B2 | 2
